Measured values published in US20220112525A1, “BIOSYNTHESIS OF VANILLIN FROM ISOEUGENOL” (Conagen Inc., priority 2019, published 2022).

Key:
[1] = Enzyme assay in vitro with isoeugenol as substrate, formation of vanillin by HPLC; format: biochemical; conditions: 10 mM isoeugenol, 10 min
Protocol: The activity was also measured with isoeugenol by measuring the formation of vanillin. The reaction mixture contained 10 mM isoeugenol, 100 mM potassium phosphate buffer (pH 7.0), 10% (v/v) ethanol and an appropriate amount of enzyme, in a total volume of 1 ml. The reaction was started, by adding isoeugenol as ethanol solution, carried out at 30° C. for 10 min with reciprocal shaking (160 strokes min^−1) and stopped with 1 ml of methanol. After centrifugation at 21,500, the supernatant was analyzed by HPLC for the determination of isoeugenol, vanillin, vanillyl alcohol. FfLSD enzyme treated in boiling water for 5 minutes was used as the negative control.
Almost all isoeugenol added to the reaction mixture was converted to vanillin (top panel). As expected, no vanillin was produced with the negative control (bottom panel).

[2] = Enzyme assay in vitro with 4,4'-dihydroxy-3,3'-dimethoxystilbene as substrate, vanillin detected by HPLC; format: biochemical; conditions: 30° C., 50 mM Tris-HCl pH 8.5, substrate 200 μM
Protocol: The activity of FfLSD was determined by two substrates, 4,4′-dihydroxy-3,3′-dimethoxystilbene and isoeugenol, respectively. For measuring the activity toward 4,4′-dihydroxy-3,3′-dimethoxystilbene, the activity was assayed at 30° C. in 2.5 ml of 50 mM Tris-HCl buffer (PH 8.5) containing suitable amounts of enzyme solution. The enzyme reaction was started by addition of substrates dissolved in 10 μL of N,N-dimethylformamide (DMF) to a final concentration of 200 μM. The reaction product, vanillin, was detected with HPLC analysis.

B1: FfLSD: putative lignostilbene-α, β-dioxygenase from the fungus Fusarium fujikuroi, 522 amino acids (SEQ ID NO: 2), recombinant, His-tagged (protein, listed as Fusarium fujikuroi)
chain: MSAPEEHHGLKSKWPQAFDLAGSNSPCRIEGEIGDLVVLGEIPPAIDGTFYRVMCDPFVPPHPDNVPLDGDGHVSAFRIYNGRVDMKIKYVETERYKLERKAGKALFGLYRNPFTHHPCVRAAVDSTANTNMVYWADRLLALKESALPYEMHPDTLETLCYDPFGGQVKAKAFTAHPKIDPFSDELVVYGYEAKGLATRDIVIYSLDKNGIKHDEQWIESPWCAPIHDCVITPNFIVLILWPFEASVERMKAGKQHWAWDYSLPATFIVVPRRKTSKIPASWKQGEHRVYHWKNCMNIHAGSAWEEDNGKLYLETSRVHDNAFPFFPPVDGRMPAPDAKADFVRWEIDLNAPSGTQMADPEVILDVPSEFPRIDERFMTKRNEYLFLNVFIPETSQGGTNIFHGLNGLAMHNHSTGETKWFFAGKDSLVQEPIFIPRTADAPEGDGWVIAMLERRVANRSELVVLDTREFEKPVAFIQLPMHLKAQVHGNWIDSRTRASTEAIVRQIGEVKVSARGALEPLA
modifications: His tag
Question: Which “isoeugenol added to the reaction mixture converted to vanillin” value ([1]; pH 7.0, 30° C., HPLC (FIG. 6)) does the source give for B1 here?
Answer: Almost all

Question: And the activity toward isoeugenol ([1]; potassium phosphate pH 7.0, 30° C.)?
Answer: high activity

Question: And the “activity toward 4,4′-dihydroxy-3,3′-dimethoxystilbene” value [2]?
Answer: did not show activity
